Measurements from IntAct's records for PubMed 23386615.

B1: Peroxiredoxin-1 (Homo sapiens), Q06830 (parent)
chain: MSSGNAKIGHPAPNFKATAVMPDGQFKDISLSDYKGKYVVFFFYPLDFTFVCPTEIIAFSDRAEEFKKLNCQVIGASVDSHFCHLAWVNTPKKQGGLGPMNIPLVSDPKRTIAQDYGVLKADEGISFRGLFIIDDKGILRQITVNDLPVGRSVDETLRLVQAFQFTDKHGEVCPAGWKPGSDTIKPDVQKSKEYFSKQK
partner: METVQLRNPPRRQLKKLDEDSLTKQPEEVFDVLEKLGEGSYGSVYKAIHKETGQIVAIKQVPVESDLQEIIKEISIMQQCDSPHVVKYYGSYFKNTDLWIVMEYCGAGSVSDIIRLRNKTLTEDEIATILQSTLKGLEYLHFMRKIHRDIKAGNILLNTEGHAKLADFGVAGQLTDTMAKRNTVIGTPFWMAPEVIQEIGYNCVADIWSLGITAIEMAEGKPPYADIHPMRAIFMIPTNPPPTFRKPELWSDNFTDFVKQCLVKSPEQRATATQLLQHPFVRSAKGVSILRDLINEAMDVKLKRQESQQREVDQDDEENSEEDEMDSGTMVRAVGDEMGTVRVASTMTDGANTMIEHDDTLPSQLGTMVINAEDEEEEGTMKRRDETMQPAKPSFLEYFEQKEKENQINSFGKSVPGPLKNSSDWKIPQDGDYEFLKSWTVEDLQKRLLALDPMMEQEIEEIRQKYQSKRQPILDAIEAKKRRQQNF
B2: Serine/threonine-protein kinase 4 (Homo sapiens), Q13043 (parent)
chain: B1 partner
partner: B1 chain

Variants of: B1
Details: with stk4_human STK4, Q13043

Variant | effect of a mutation on the interaction
MSSGNAKIGHPAPNFKATAVMPDGQFKDISLSDYKGKYVVFFFYPLDFTFVSPTEIIAFSDRAEEFKKLNCQVIGASVDSHFCHLAWVNTPKKQGGLGPMNIPLVSDPKRTIAQDYGVLKADEGISFRGLFIIDDKGILRQITVNDLPVGRSVDETLRLVQAFQFTDKHGEVSPAGWKPGSDTIKPDVQKSKEYFSKQK | decreasing interaction

Variants of: B2
Details: with prdx1_human PRDX1, Q06830

Variant | effect of a mutation on the interaction
METVQLRNPPRRQLKKLDEDSLTKQPEEVFDVLEKLGEGSYGSVYKAIHKETGQIVAIRQVPVESDLQEIIKEISIMQQCDSPHVVKYYGSYFKNTDLWIVMEYCGAGSVSDIIRLRNKTLTEDEIATILQSTLKGLEYLHFMRKIHRDIKAGNILLNTEGHAKLADFGVAGQLTDTMAKRNTVIGTPFWMAPEVIQEIGYNCVADIWSLGITAIEMAEGKPPYADIHPMRAIFMIPTNPPPTFRKPELWSDNFTDFVKQCLVKSPEQRATATQLLQHPFVRSAKGVSILRDLINEAMDVKLKRQESQQREVDQDDEENSEEDEMDSGTMVRAVGDEMGTVRVASTMTDGANTMIEHDDTLPSQLGTMVINAEDEEEEGTMKRRDETMQPAKPSFLEYFEQKEKENQINSFGKSVPGPLKNSSDWKIPQDGDYEFLKSWTVEDLQKRLLALDPMMEQEIEEIRQKYQSKRQPILDAIEAKKRRQQNF [K59R] | increasing interaction
